Measurements published in US20190330362A1 (GOVERNING COUNCIL OF THE UNIVERSITY OF TORONTO, published 2019).

Key:
[1] = biological target: T1, human CD133 (GenBank Accession O43490) (human, UniProt O43490 20-865); experiment: flow cytometry, serial dilutions on HEK293-CD133 cells, anti-human Fab'2 secondary antibody
T1 construct: Full-length human CD133 overexpressed in HEK293-CD133 cells, or endogenous on Caco-2, HPAC, PL45, RWP-1 and GBM cells; In the Western blots the same protein is denatured in whole cell lysate; also called Prominin-1; cell surface CD133
T1 sequence: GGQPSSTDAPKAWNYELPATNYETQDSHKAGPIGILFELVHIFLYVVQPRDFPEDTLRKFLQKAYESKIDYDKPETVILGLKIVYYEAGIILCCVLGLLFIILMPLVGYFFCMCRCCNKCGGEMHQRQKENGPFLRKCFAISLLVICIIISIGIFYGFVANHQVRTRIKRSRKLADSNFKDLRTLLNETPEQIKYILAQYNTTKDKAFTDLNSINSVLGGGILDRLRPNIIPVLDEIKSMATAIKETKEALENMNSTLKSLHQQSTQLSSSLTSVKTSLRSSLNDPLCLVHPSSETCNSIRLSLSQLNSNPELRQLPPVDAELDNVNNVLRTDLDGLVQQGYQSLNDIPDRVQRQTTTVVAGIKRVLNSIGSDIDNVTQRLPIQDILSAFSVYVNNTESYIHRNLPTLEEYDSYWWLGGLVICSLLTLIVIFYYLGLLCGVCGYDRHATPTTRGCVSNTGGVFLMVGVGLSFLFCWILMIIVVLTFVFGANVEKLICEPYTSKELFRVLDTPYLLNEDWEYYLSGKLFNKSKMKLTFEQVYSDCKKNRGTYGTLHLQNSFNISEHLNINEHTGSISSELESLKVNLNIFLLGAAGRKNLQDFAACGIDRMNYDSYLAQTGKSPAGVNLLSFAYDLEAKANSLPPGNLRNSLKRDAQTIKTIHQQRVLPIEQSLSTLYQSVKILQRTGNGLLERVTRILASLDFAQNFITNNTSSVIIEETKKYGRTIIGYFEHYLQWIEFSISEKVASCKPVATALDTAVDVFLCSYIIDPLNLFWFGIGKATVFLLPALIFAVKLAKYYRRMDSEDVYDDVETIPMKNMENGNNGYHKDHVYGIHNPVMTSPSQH

[2] = biological target: T1, human CD133 (GenBank Accession O43490); experiment: flow cytometry on CD133-expressing cells (cell line not given), IgG alone, secondary antibody against human Fc
[3] = biological target: T1, human CD133 (GenBank Accession O43490); experiment: competitive flow cytometry on CD133-expressing cells first incubated with 25 nM Fab RW01, secondary antibody against human Fc
[4] = biological target: T1, human CD133 (GenBank Accession O43490); experiment: cell-based phage ELISA (OD450)
Protocol: Following cell selections, round four output phage for each library was plated for single colonies. These colonies were grown up in an overnight culture and tested for binding to cells by cell-based ELISA. The plates were read and OD450 nm was detected and recorded. The assay measured binding of clones to CD133-overexpressing HEK293-CD133 cells (under “CD133” column headers) vs parental HEK293 cells (under “HEK293” column headers).
After four rounds of positive and negative selection, serial dilutions were made of the round four output phage (10E-1 to 10E-3) for each library and used to infect XL1-blue cells. The infected cells were plated for isolating single colonies to be used in a clonal cell-based ELISA for isolating CD133-specific binders.

B1: IgG RW01 (antibody, V domains shown)
VH: EVQLVESGGGLVQPGGSLRLSCAASGFNIYYYGSMHWVRQAPGKGLEWVASISPYYGSTYYADSVKGRFTISADTSKNTAYLQMNSLRAEDTAVYYCARHASSGYGHYAVYGIDYWGQGTLVTVSS
VL: DIQMTQSPSSLSASVGDRVTITCRASQGSSYVAWYQQKPGKAPKLLIYSASYLYSGVPSRFSGSRSGTDFTLTISSLQPEDFATYYCQQGVWSLITFGQGTKVEIKR
notes: also called RW01 IgG; lIgG RW01
Which EC50 [1] does the source give for B1 here?
The EC50 was 2.5 nM.

B2: IgG RW03 (antibody, V domains shown)
VH: EVQLVESGGGLVQPGGSLRLSCAASGFNLSSSSIHWVRQAPGKGLEWVAYIYPYYSYTYYADSVKGRFTISADTSKNTAYLQMNSLRAEDTAVYYCARFGSVAGFDYWGQGTLVTVSS
VL: DIQMTQSPSSLSASVGDRVTITCRASQSVSSAVAWYQQKPGKAPKLLIYSASSLYSGVPSRFSGSRSGTDFTLTISSLQPEDFATYYCQQYSHAGHLFTFGQGTKVEIKR
notes: Human IgG1 (hG1) with kappa light chain (hK); variable region of Fab RW03 (Library F); also called RW03 IgG; lIgG RW03
Which EC50 [1] does the source give for B2 here?
The EC50 was 0.5 nM.

What about the “EC50 (read off the curve)” value [2] of the same binder?
Its value is roughly 1 nM.

And the “EC50 (read off the curve)” value [3]?
Its value is roughly 1 nM.

B3: phage-Fab RW03 (Fab, V domains shown)
VH: B2 VH
VL: DIQMTQSPSSLSASVGDRVTITCRASQSVSSAVAWYQQKPGKAPKLLIYSASSLYSGVPSRFSGSRSGTDFTLTISSLQPEDFATYYCQQYSHAGHLFTFGQGTKVEIK
notes: also called phage-Fab clone RW03; RW03 clone
Which “fold binding to HEK293-CD133 cells vs HEK293 cells” value [4] does the source give for B3 here?
Its value is no less than 1.5 fold.
